Reference: the supplement of paper PMC7877785
± gives the uncertainty stated by the source.

Test: self-splicing fitness, log relative to wild type (ln ratio); higher = more splicing; Tetrahymena group I intron in knt gene, E. coli kanamycin selection, DiMSum; sequences stand for … in CUCUCU…GGAGGGAAAAGUUAUCAGGCAUGCACCUGGUAGCUAGUCUUUAAACCAAUAGAUUGCAUCGGUUUAAAAGGCAAGACCGUCAAAUUGCGGGAAAGGGGUCAACAGCCGUUCAGUACCAAGUCUCAGGGGAAACUUUGAGAUGGCCUUGCAAAGGGUAUGGUAAUAAGCUGACGGACAUGGUCCUAACCACGCAGCCAAGUCCUAAGUCAACAGAUCUUCUGUUGAUAUGGAUGCAGUUCACAGACUAAAUGUCGGUCGGGGAAGAUGUAUUCUUCUCAUAAGAUAUAGUCGGACCUCUCCUUAAUGGGAGCUAGCGGAUGAAGUGAUGCAACACUGGAGCCGCUGGGAACUAAUUUGUAUGCGAAAGUAUAUUGAUUAGUUUUGGAGUACUCGUGGUCG
How it was run: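 Library with all eight P1ex-region intron nucleotides randomised, intron inside the knt kanamycin-resistance gene on pET-22b(+), in E. coli BL21(DE3). Cells grew overnight at 37°C or 30°C on LB agar with or without 25 μg/mL kanamycin (plus 100 μg/mL carbenicillin, 50 μM IPTG, 0.2% rhamnose), in six replicate transformations. Pooled colonies were amplicon-sequenced on Illumina HiSeq 2500. DiMSum fitness is the error-weighted combination of wild-type-normalised replicate fold changes, kanamycin versus none.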

| Sequence | self-splicing fitness (ln) (30 °C) | self-splicing fitness (ln) (37 °C) |
| --- | --- | --- |
| ACUAAGCAAUAUUACGGUAC | -2.7 ± 0.27 | -1.89 ± 0.19 |
| ACUAAGCAAUAUUACGGUCA | -1.57 ± 0.077 | -1.35 ± 0.094 |
| ACUAAGCAAUAUUACGGUCU | -1.45 ± 0.072 | -0.907 ± 0.082 |
| ACUAAGCAAUAUUACGGUGC | -2.36 ± 0.11 | -2.02 ± 0.15 |
| ACUAAGCAAUAUUACGGUUU | -2.05 ± 0.091 | -0.745 ± 0.096 |
| ACUAAGCAAUAUUACGUAUG | -3.55 ± 0.16 | -1.25 ± 0.14 |
| ACUAAGCAAUAUUACGUCAA | -3.07 ± 0.17 | -1.35 ± 0.14 |
| ACUAAGCAAUAUUACGUCGA | -1.04 ± 0.13 | -1.45 ± 0.12 |
| ACUAAGCAAUAUUACGUGAC | -3.82 ± 0.21 | -1.28 ± 0.14 |
| ACUAAGCAAUAUUACGUGAU | -1.65 ± 0.062 | -1.21 ± 0.077 |
| ACUAAGCAAUAUUACGUGCU | -1.62 ± 0.073 | -1.06 ± 0.099 |
| ACUAAGCAAUAUUACGUGGU | -3.41 ± 0.15 | -2.73 ± 0.21 |
| ACUAAGCAAUAUUACGUGUC | -3.48 ± 0.14 | -3.57 ± 0.21 |
| ACUCAGCAAUAUUACGAACG | -0.623 ± 0.1 | -0.492 ± 0.14 |
| ACUCAGCAAUAUUACGACCG | -0.553 ± 0.16 | -1 ± 0.15 |
| ACUCAGCAAUAUUACGACGU | -0.498 ± 0.063 | 0.168 ± 0.082 |
| ACUCAGCAAUAUUACGAUAC | -0.894 ± 0.13 | -0.656 ± 0.19 |
| ACUCAGCAAUAUUACGAUCC | -3.06 ± 0.37 | – |
| ACUCAGCAAUAUUACGAUGA | -1.82 ± 0.12 | -0.791 ± 0.11 |
| ACUCAGCAAUAUUACGCAGU | -3.55 ± 0.16 | -2.28 ± 0.17 |
| ACUCAGCAAUAUUACGCCCC | -1.48 ± 0.12 | 0.148 ± 0.18 |
| ACUCAGCAAUAUUACGCGGG | -2.91 ± 0.15 | -2.68 ± 0.18 |
| ACUCAGCAAUAUUACGGCAG | -1.52 ± 0.089 | -0.501 ± 0.093 |
| ACUCAGCAAUAUUACGGCUU | -0.0445 ± 0.067 | 0.494 ± 0.086 |

| Sequence | self-splicing fitness (ln) (30 °C) | self-splicing fitness (ln) (37 °C) |
| --- | --- | --- |
| ACUCAGCAAUAUUACGGUCA | -1.11 ± 0.11 | -1.05 ± 0.1 |
| ACUCAGCAAUAUUACGUAGA | -1.41 ± 0.066 | -0.457 ± 0.092 |
| ACUCAGCAAUAUUACGUAGU | -2.86 ± 0.13 | -1.35 ± 0.12 |
| ACUCAGCAAUAUUACGUGAA | -1.27 ± 0.053 | 0.294 ± 0.086 |
| ACUGAGCAAUAUUACGAAGG | -2.53 ± 0.18 | -2.02 ± 0.24 |
| ACUGAGCAAUAUUACGAGGG | -2.5 ± 0.18 | -2.21 ± 0.33 |
| ACUGAGCAAUAUUACGAGUU | -2.88 ± 0.17 | -2.91 ± 0.28 |
| ACUGAGCAAUAUUACGCCAU | -2.4 ± 0.16 | -2.74 ± 0.27 |
| ACUGAGCAAUAUUACGCGGA | -1.94 ± 0.1 | -1.74 ± 0.12 |
| ACUGAGCAAUAUUACGCGGC | -3.69 ± 0.4 | -2.28 ± 0.28 |
| ACUGAGCAAUAUUACGCGGG | -2.64 ± 0.17 | -2.03 ± 0.18 |
| ACUGAGCAAUAUUACGCUAU | -3.58 ± 0.15 | -2.42 ± 0.14 |
| ACUGAGCAAUAUUACGGACA | -2.8 ± 0.22 | -2.27 ± 0.17 |
| ACUGAGCAAUAUUACGGAGC | -2.54 ± 0.23 | -1.44 ± 0.28 |
| ACUGAGCAAUAUUACGUAGC | -3.07 ± 0.12 | -1.66 ± 0.13 |
| ACUGAGCAAUAUUACGUCAU | -4.08 ± 0.39 | -2.26 ± 0.19 |
| ACUGAGCAAUAUUACGUUAA | -4.3 ± 0.42 | -2.15 ± 0.28 |
| ACUGAGCAAUAUUACGUUUC | -3.19 ± 0.27 | -2.6 ± 0.23 |
| ACUUAGCAAUAUUACGACAC | -2.03 ± 0.14 | -0.762 ± 0.2 |
| ACUUAGCAAUAUUACGACUC | -1.05 ± 0.12 | -0.137 ± 0.15 |
| ACUUAGCAAUAUUACGAUAU | -1.62 ± 0.087 | -1.18 ± 0.11 |
| ACUUAGCAAUAUUACGAUCU | -0.0945 ± 0.076 | 0.51 ± 0.1 |
| ACUUAGCAAUAUUACGCACC | -1.99 ± 0.23 | 0.826 ± 0.29 |
| ACUUAGCAAUAUUACGCCUA | -0.829 ± 0.29 | 0.394 ± 0.2 |

| Sequence | self-splicing fitness (ln) (30 °C) | self-splicing fitness (ln) (37 °C) |
| --- | --- | --- |
| ACUUAGCAAUAUUACGCCUC | -2.19 ± 0.26 | -1.64 ± 0.3 |
| ACUUAGCAAUAUUACGCGUU | -2.5 ± 0.12 | -2.05 ± 0.12 |
| ACUUAGCAAUAUUACGGAAG | -2.44 ± 0.13 | -1.25 ± 0.14 |
| ACUUAGCAAUAUUACGGGAC | -3.61 ± 0.19 | -2.03 ± 0.17 |
| ACUUAGCAAUAUUACGGUAG | -3.35 ± 0.23 | -1.83 ± 0.23 |
| ACUUAGCAAUAUUACGGUCC | -2.46 ± 0.12 | -1.33 ± 0.12 |
| ACUUAGCAAUAUUACGGUGA | -1.76 ± 0.15 | -1.56 ± 0.15 |
| ACUUAGCAAUAUUACGUAGU | -2.87 ± 0.11 | -2.73 ± 0.19 |
| ACUUAGCAAUAUUACGUCAU | -3.1 ± 0.2 | -1.56 ± 0.17 |
| ACUUAGCAAUAUUACGUCGC | – | -1.22 ± 0.26 |
| ACUUAGCAAUAUUACGUGCA | -1.1 ± 0.055 | -0.535 ± 0.072 |
| ACUUAGCAAUAUUACGUUCA | -0.344 ± 0.19 | -0.694 ± 0.2 |
| ACUUAGCAAUAUUACGUUCU | -1.28 ± 0.064 | -0.195 ± 0.087 |
| ACUUAGCAAUAUUACGUUUA | -1.5 ± 0.17 | -1.07 ± 0.18 |
| AGAAAGCAAUAUUACGAAAC | -3.2 ± 0.25 | -2.93 ± 0.24 |
| AGAAAGCAAUAUUACGAAAU | -1.52 ± 0.1 | -1.91 ± 0.15 |
| AGAAAGCAAUAUUACGAAGU | -3.61 ± 0.27 | -2.15 ± 0.21 |
| AGAAAGCAAUAUUACGACAU | 0.0508 ± 0.012 | 0.0923 ± 0.032 |
| AGAAAGCAAUAUUACGACCU | 0.52 ± 0.099 | 0.265 ± 0.11 |
| AGAAAGCAAUAUUACGACGU | 0.0909 ± 0.1 | 0.35 ± 0.1 |
| AGAAAGCAAUAUUACGACUU | -0.252 ± 0.072 | 0.222 ± 0.1 |
| AGAAAGCAAUAUUACGAGCA | -0.695 ± 0.11 | -0.262 ± 0.16 |
| AGAAAGCAAUAUUACGAGUA | -2.18 ± 0.097 | -1.13 ± 0.086 |
| AGAAAGCAAUAUUACGAUAG | -3.4 ± 0.38 | -1.02 ± 0.16 |

| Sequence | self-splicing fitness (ln) (30 °C) | self-splicing fitness (ln) (37 °C) |
| --- | --- | --- |
| AGAAAGCAAUAUUACGAUCU | -2.88 ± 0.11 | -0.99 ± 0.11 |
| AGAAAGCAAUAUUACGCACC | 0.221 ± 0.098 | 0.0714 ± 0.12 |
| AGAAAGCAAUAUUACGCGAU | -3.37 ± 0.17 | -1.63 ± 0.13 |
| AGAAAGCAAUAUUACGCGGG | -2.43 ± 0.24 | -2.25 ± 0.26 |
| AGAAAGCAAUAUUACGGACU | -0.691 ± 0.079 | 0.112 ± 0.089 |
| AGAAAGCAAUAUUACGGCCC | 0.946 ± 0.29 | -0.169 ± 0.27 |
| AGAAAGCAAUAUUACGGGUG | -1.41 ± 0.089 | -1.36 ± 0.14 |
| AGAAAGCAAUAUUACGGUCA | -0.253 ± 0.078 | 0.187 ± 0.091 |
| AGAAAGCAAUAUUACGUAGA | -1.52 ± 0.12 | -1.52 ± 0.14 |
| AGAAAGCAAUAUUACGUCAG | -1.94 ± 0.093 | -0.978 ± 0.11 |
| AGAAAGCAAUAUUACGUCCA | -1.06 ± 0.1 | -0.056 ± 0.13 |
| AGAAAGCAAUAUUACGUCCG | -0.86 ± 0.096 | 0.226 ± 0.14 |
| AGAAAGCAAUAUUACGUCGU | -1.9 ± 0.059 | -0.452 ± 0.081 |
| AGAAAGCAAUAUUACGUCUG | -0.808 ± 0.043 | -0.1 ± 0.063 |
| AGACAGCAAUAUUACGAACA | -1.33 ± 0.1 | -0.502 ± 0.099 |
| AGACAGCAAUAUUACGACAA | -1.34 ± 0.12 | -1.02 ± 0.12 |
| AGACAGCAAUAUUACGACUG | -1.14 ± 0.078 | -0.387 ± 0.084 |
| AGACAGCAAUAUUACGAGGG | -4.15 ± 0.16 | -2.61 ± 0.21 |
| AGACAGCAAUAUUACGAUAG | -3.16 ± 0.2 | -1.56 ± 0.26 |
| AGACAGCAAUAUUACGCAAA | -2.66 ± 0.18 | -1.37 ± 0.14 |
| AGACAGCAAUAUUACGCCGA | -2.06 ± 0.089 | -0.863 ± 0.094 |
| AGACAGCAAUAUUACGCGCU | -2.26 ± 0.12 | -1.63 ± 0.13 |
| AGACAGCAAUAUUACGCGGG | -3.46 ± 0.2 | -2.62 ± 0.18 |
